According to patent publication US20200155661A1 (LENTIGEN TECHNOLOGY, published 2020):
Residue numbers refer to the chain shown, from its start.

B1: CD22-specific binder (scFv5) 12s (scFv)
scFv: QVQLQQSGPGLVKPSQTLSLTCAISGDSVSSNSAAWNWIRQSPSRGLEWLGRTYYRSKWYNDYAVSVKSRITINPDTSKNQFSLQLNSVTPEDTAVYYCAREGDDALDIWGQGTMVTVSSGGGGSGGGGSGGGGSDIQMTQSPSSLSASVGDRVTITCRASQSISHFLNWYQQKPGTAPKLLITTASGLGSGVPSRFSGSGSGTDFTLTINSLQPEDLATYYCQQSYTTPLTFGGGTKLEIKR
B2: CD22-specific binder (scFv3) 25P (scFv)
scFv: QVQLQQSGPGLVKPSQTLSLTCAISGDSVSSNSAAWNWIRQSPSRGLEWLGRTYYRSKWYNDYAVSVKSRITINPDTSKNQFSLQLNSLTPEDTAVYYCAREHQNEAAFDIWGQGTMVTVSSGGGGSGGGGSGGGGSQSVLTQPPSASGTPGQRVTISCSGGGSNIGTNTASWYQQLPGTAPKLLIYRNTQRPSGIPDRFSGSKSGTSASLAISGLQSEDEADYYCAAWDDSLNGYVFGAGTQLTVLG
notes: Lambda light chain
B3: CD22-specific binder (scFv1) 16P (scFv)
scFv: QVQLQQSGPGLVKPSQTLSLTCAISGDSVSSNSAAWNWIRQSPSRGLEWLGRTYYRSKWYNDYAVSVKSRITINPDTSKNQFSLQLNSVTPEDTAVYYCAQEVQPHDAFDIWGQGTMVTVSSGGGGSGGGGSGGGGSDIQMTQSPSSVSASVGDKVTITCRASQDVSGWLAWYQQKPGLAPQLLIFGASTLQGEVPSRFSGSGSGTDFTLTISSLQPEDFATYYCQQAKNFPYTFGQGTKLEIKR
notes: also called founder clone
B4: CD22-specific binder (scFv18) 16P15 (scFv)
scFv: QVQLQQSGPGLVKPSQTLSLTCAISGDSVSSNSAAWNWIRQSPSRGLEWLGRTYYRSKWYNDYAVSVKSRITINPDTSKNQFSLQLNSVTPEDTAVYYCAQEVEPHDALDIWGQGTMVTVSSGGGGSGGGGSGGGGSDIQMTQSPSSVSASVGDKVTITCRASQDVSGWLAWYQQKPGLAPQLLIFGASTLQGEVPSRFSGSGSGTDFTLTISSLQPEDFATYYCQQAKYFPYTFGQGTKLEIK
B5: CD22-specific binder (scFv8) 16P20 (scFv)
scFv: B4 scFv
B6: CD22-specific binder (scFv17) 16P13 (scFv)
scFv: B4 scFv with D27N, H106Q, L109F, S202G
B7: CD22-specific binder (scFv13) 16P20v2 (scFv)
scFv: B4 scFv with E104Q, H106D, L109F, F186S, Y230N
B8: CD22-specific binder (scFv6) 16P3 (scFv)
scFv: B4 scFv with V2I, E104Q, H106D, F186S, Y230N
B9: CD22-specific binder (scFv15) 16P3v2 (scFv)
scFv: B4 scFv with P14H, T21A, E104Q, H106Q, S147F, T157I, F186S
B10: CD22-specific binder (scFv11) 16P10 (scFv)
scFv: B4 scFv with H106Q, L109F, Q237P
B11: CD22-specific binder (scFv7) 16P16 (scFv)
scFv: B4 scFv with S78F, Q140K
B12: CD22-specific binder (scFv9) 16P2 (scFv)
scFv: B4 scFv with S78F, Q140K
B13: CD22-specific binder (scFv12) 16P17 (scFv)
scFv: B4 scFv with P14H, L109F, S149Y, F186S
B14: CD22-specific binder (scFv16) 16P8 (scFv)
scFv: B4 scFv with N61T, S69N, H106Q, L109F, Q237R
B15: CD22-specific binder (scFv10) 16P6 (scFv)
scFv: B4 scFv with E104Q, H106D, L109F, V118I, F186S, E194G, Y230N
B16: CD22-specific binder (scFv14) 16P1 (scFv)
scFv: B4 scFv with A23D, V103I, L109F, G113D, D138V, F186S, T190S, E194G

What follows are binders tested against T1, CD22 expressed on cells (CHOK1-CD22, K562-CD22, Raji, Reh) (human, UniProt P20273 20-847) (assay: yeast display cell panning on CHOK1 cells transfected with CD22).
T1 construct: whole, on cells; also called SIGLEC-2; Leu14
Method: The same ScFv starting material as for phage display was also incorporated into a yeast ScFv display system. To supplement phage-based scFv analysis, yeast libraries expressing the human scFv library were also screened. To enrich the yeast expressing scFvs that bind to both the recombinant CD22-Fc and the […] expressed on the cell surface of the CHOK1 cells, cell panning on CHOK1 transfected with CD22 cells was performed. For the first round of panning on the cell surface, two days prior to panning, the CHOK1-CD22 cells were seeded into 6-well plates and grown to 50% confluency in F12 K medium. 5×10⁷ yeast cells were then washed 2× with PBSA buffer and resuspended into 3 mL F12 K medium, and then gently added dropwise to the CHOK1-CD22 cells. […] The cell mix containing both the yeast and CHOK1 cells were then inoculated into 10 mL SDCAA medium and amplified overnight at 30° C. and then induced in SGCAA medium at 30° C. for 16 hours. For the second round of cell panning, a similar protocol as above was performed, but more stringent wash conditions were used. […] Binder sequences were incorporated into CART constructs as described in Example 2, infra, in a series of in vitro CART functional assays.

Binder	binding result
B1	binds
B2	binds

These binders were tested against T2, recombinant human CD22 (labeled CD22 used in flow cytometry of yeast) (human, UniProt P20273 20-687, limits assumed, fluorescent label, not specified) (assay: flow cytometry of yeast-displayed scFv with decreasing amounts of labeled CD22).
T2 construct: also called fluorescently tagged antigen
Method: After electroporation, the resulting mutant library was then grown overnight at 30° C. for 16 hours in SDCAA medium and then switched into SGCAA medium at 30° C. for another 16 hours. The mutant library was then sorted through MACS (immunomagentic column, Miltenyi Biotec) with CD22-Fc as the capture antigen to downsize the library and to increase the population of mutants that could bind to CD22-Fc. The strongest binders were then selected by double staining the pools with Anti-c-Myc-Alexa 488 and […]/Anti-Hu-Fc and selecting for the binders that had the highest binding affinities as well as c-Myc expression levels. […] Binding affinities were estimated by flow cytometry of yeast pools using decreasing amounts of labeled CD22.

Binder	EC50 [mg/L]
B3	0.5
B4	< 0.01
B5	< 0.01
B6	< 0.01
B7	< 0.01
B8	< 0.01
B9	< 0.01
B10	< 0.01
B11	< 0.01
B12	< 0.01
B13	< 0.01
B14	< 0.01
B15	< 0.01
B16	< 0.01
